According to a protein production outcome set (Wang et al. 2014):

Experiment: label from the status in PepcDB records
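Also: failed if final PepcDB status was selected cloned or expressed and not failed if soluble or beyond.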

Sequence: MEISLLQAFALGIIAFIAGLDMFNGLTHMHRPVVLGPLVGLVLGDLHTGILTGDTLELVWMGLAPLAGAQPPNVIIGTIVGTAFAITTGVKPDVAVGVAVPFAVAVQMGITFLFSVMSGVMSRCDRMAENADTRGIERVNYLALLALGTFYFLCAFLPIYFGAEHAKTIIDVLPQRLIDGLGVAGGIMPAIGFAVLLKIMMKNVYIPYFILGFVAATWLKLPVLAIAAAALAMALIDLLRKSPEPTQPAAQKEEFEDGI
- protein production: failed

Sequence: MKPSKYSVKAQGHGSSYMPMEVTLSKDKIEDINVDASGETRGVADEVFNRLPKLIVDNQTLNIDAVSGATISSHGVIDGVAQTINEAGGNSEEWKRRAKPRKVLLKKTKNMILMLEHHHHHH
- protein production: not failed

Sequence: MNQNWHATLIRHLLLLITVCLIGGLVSGYYGWSLAIGLALYLGWTLKQLLRLHDWLRNHQPDEAPPDGYGLWGEVFDSIYHLQRRDQRVRGRLQAVIDRVQESTAALRDAVIMLDSDGNLEWWNRAAETLLGFKTPQDGGQQVTNLVRHPLFKEYFEAENYLEPLEIPSPINDRMRVQLHITRYGNNEHLMLVRDVTRIHQLEQMRKDFVANVSHELRTPLTVITGYLETLLDNVEDVNPRWSRALQQMSQQGSRMQTLLNDLLLLAKLEATDYPSDNQPVAVDALLAAIKNDAQALSGPRNQRINLEAAPGVKLKGSESELRSAFSNLVFNAVKYTQDEGSIRIRWWADAQGAHLSVQDSGVGIDAKHLPRLTERFYRVDSSRASNTGGTGLGLAIVKHVLMRHRGKLEISSVPGHGSTFTCHFAPAQLANEKA
- protein production: failed

Sequence: MSLIEIRKRTLIVETTYHENGPAPAQPLKLAASCAVIRNPYAGRYEPDLMPFMAELRSLGTLLATELVDTLGKDNIEVYSKAAIVGVDGEMEHGAVWHEAGGWAMRSVLGEPKAMVPAVKAVATAGYRMMVPVHYIHASYVRSHFNSIEIGIQDAPRPREILFALVMGTGARVHARLGGLTKEAVSVHDGQR
- protein production: not failed

Sequence: MSNKIVTLEINLEPSDNRRLASLCGPFDDNIKHLERRLGVEINHRSDHFTIVGKPHTSAAALDILKTLYVDTAPVRGEIPDIEPEQIHLAIKESGVLEQNTESSIAHGKEVFVKTKKGVIKPRTPNQAQYLVNMVTHDISFGIGPAGTGKTYLAVAAAVDALERQEIRRILLTRPAVEAGEKLGFLPGDLSQKVDPYLRPLYDALFEMLGFERVEKLIERNVIEVAPLAYMRGRTLNDAFIILDESQNTTVEQMKMFLTRIGFNSRAVITGDVTQIDLPRGAKSGLRHAIEVLSEVDDISFNFFQADDVVRHPVVARIVNAYEKWEAQDQKERKEFEKRRREERDAKLLEAAKAELSAQVAATKE
- protein production: not failed

Sequence: MSLNGSRRIPQPIRWAMVGGGSQSQIGYIHRCAALRDNTFVLVAGAFDIDPIRGSAFGEQLGVDSERCYADYLSMFEQEARRADGIQAVSIATPNGTHYSITKAALEAGLHVVCEKPLCFTVEQAENLRELSHKHNRIVGVTYGYAGHQLIEQAREMIAAGELGDVRMVHMQFAHGFHSAPVEAQSQATQWRVDPRQAGPSYVLGDVGTHPLYLSEVMLPDLKIKRLMCSRQSFVASRAPLEDNAYTLMEYEGGAMGMVWSSAVNAGSMHGQKIRVIGSRASLEWWDERPNQLSFEVQGQPAQILERGMGYLHPNALIDDRIGGGHPEGLFEAWANLYYRFALAMDATDRSDTQALSAVRYPGIDAGVEGVRWVERCVLSADNDSIWVAYEGHHHHHH
- protein production: not failed

Sequence: MQDDVLAKELADKTSKADIDTDAQTVTRLIADEIDTAKQAAESDITQRSRFIETLRQYAGGGSAMAALITRLGYSKADILHLAELWAQERDPELNFIVGSLYDSGFVEVDDKEARSLQWFRKAAELGQADAQNILGYFYLNGKRGIKRDLQKGGQWYELAAAQGNVDALINLGEIYYSGTQVPLDYARAFEFFERAAKMGKSRALNYLAWMYTNGQFVDTDCRKAAELFAQGRTSFADDPHFQVTCEKDRQARAEAVAMREKNLPKLTFNRDRVFGASQGSGYACELEFVVKTDRVSSIENLRVSLALKNKAGAMSQQVIAFEPFGLNTQNRNLQGYKSDTLRESTLQPIYQPEFCDVDSYSVTAVTGIVNGKEMDILKAGIFL
- protein production: failed

Sequence: MKREEYLKNYLESYLRKKEVSLTEEEFNVILREFLRFAYNPEESGQEIADTADGSKTLIHKTYGEPYHSQTAGAIRESLYKFVRPSRILEKAKERKVIRILDVGFGLGYNLAVALKHLWEVNPKLRVEIISFEKELLKEFPILPEPYREIHEFLLERVPEYEGERLSLKVLLGDARKRIKEVENFKADAVFHDAFSPYKNPELWTLDFLSLIKERIDEKGYWVSYSSSLSVRKSLLTLGFKVGSSREIGRKRKGTVASLKAPVPPMEENEVRKLVLSPFAVPMRDEKLDKEPLEILIDYLLKVYKISR
- protein production: not failed

Sequence: MLQHRCPVRRILVHYIAHWSRLRSILPTFAAIVRRPFRVCKTMNQPSSKPTPAVTFRLSKAELVLVFITMLWGGTFLLVHNVMTVSGPMFFVGLRFAAAALFVGVVSARALPGLTFTELKAGMLIGVSIMLGYGLQTMGLQTISSSQSAFITALYVPFVPLLQWLVLGRRPGLMPSMGICLAFIGLMLLAGPEGGSLRFSEGELVTLISAVAIAGEIILISRYAGQVDVRRVTVVQLATASLLAFLMIVPTQERIPDFSWLLLASAVGLGAMSAVIQVAMNWAQKSVSPTRATLIYAGEPVWAGIVGRLAGERLPGVALLGGLLIVVAVVVSELKVRRPRETVETRDVQNPGERQAGL
- protein production: failed

Sequence: MATATTTKTKTKATKKTRAKKATKKRATPKKNLVIVESPAKAKTIEKYLGRNYKVVASVGHIRDLKKSSMSIDFENNYEPQYINIRGKGPLIKELKKEAKKAKKVFLASDPDREGEAISWHLSHILGLEPEDKNRVVFNEITKDAVKNAFAEPRAIDMDLVDAQQARRVLDRIVGYSISPLLWKKVKKGLSAGRVQSVALKLIIDRENEIKAFKPEEYWTIDGAFKKGAKKFQASFYGLDGKKLKLNNNDDVKDVLSRIISDDFNVDKVEKKERRRNAPLPYTTSSLQQDAANKINFRTRKTMMVAQQLYEGINLGSGAQGLITYMRTDSTRISPVAQNQAAEFITERYGSKYSKHGSKVKNSSAAQDAHEAIRPSNVFQTPESIAKYLDKDQLKLYTLIWNRFVASQMTAAVFDTMKVTLSQNGVIFTANGSQIKFDGYMAVYNDSDKNKMLPEMAEGDTIKKVVTTPEQHFTQTPARYSEATLIKTLEENGVGRPSTYAPTLDVIQRRYYVKLVAKRFEPTELGEIVNSLIVEFFPDIVDVKFTAEMEAKLDKVEIGKEQWQKVIDEFFKPFQKELEKAEEGIEKIQIKDEPAGFDCDLCGHPMVIKLGRYGKFYACSNFPDCHNTKAITKEIGVTCPTCGQGQVIERKTKRNRVFYGCDRYPDCEFTSWDIPIGRNCPKSGDYLVEKKVRGGGKQVICSNEECDYKESVIK
- protein production: failed

Sequence: MAMRELSQLNRDSDGDEEVWVKHYSSNHQILLVGEGDFSFSHSLATLFGSASNICASSLDSYDVVVRKYKKARSNLKTLKRLGALLLHGVDATTLHFHPDLRYRRFDRVIFNFPHAGFHGRESDSSLIRKHRELVFGFFNGASRLLRANGEVHVSHKNKAPFSEWNLEELASRCFLVLIQRVAFEKNNYPGYENKRGDGRRCDQPFLLGECSTFKFRFSRVAKELYAEKVRSREVKERESMYPEAILNKQPVSFDHRYRLQTEFEAIAGTITLGKSKILWLSQEKGHLHWIFVTTKNVDVYSSKIPESPERHRLLCQDFPVQASQEPLSEYSNRWSGVSREIYNWEVRRMSTSTSFPHPYTGESQERSLSRQSNLITHPPQHW
- protein production: failed

Sequence: MDLIHEKVFVNRYHYDVRNHEWEKENGVPKTNVEVTFQLHHKDKEANNTSVVAVLQFMIVRDEFVISGIVSQMNHIQNRIVNNPKDFSQEEAEYLAAPLLDTLQRLTYEVTEIALDRPGINLEF
- protein production: not failed

Sequence: MDDVQVERILQNPKFKKMVSKKATLSWTLTIIMLIVYVGFMLLVGYNKEFLMSSFSGGVTTWGIPLGLGIIVLSFVLCGVYSYIANNTLDQLNEEALREVENITHEKGLH
- protein production: failed

Sequence: SAALAGVFVWDEERIQEEELQRSINEMKRLEEMSNMFQSSGVQHHPPEPKAQTEGNEDSEGKEQRWEMVMDKKHFKLWRRPITGTHLYQYRVFGTYTDVTPRQFFNVQLDTEYRKKWDALVIKLEVIERDVVSGSEVLHWVTHFPYPMYSRDYVYVRRYSVDQENNMMVLVSRAVEHPSVPESPEFVRVRSYESQMVIRPHKSFDENGFDYLLTYSDNPQTVFPRYCVSWMVSSGMPDFLEKLHMATLKAKNMEIKVKDYISAKPLEMSSEAKATSQSSERKNEGSCGPARIEYA
- protein production: not failed
